# Test: soluble fraction after stress (log2 fold change); higher = more stays soluble; pooled small domains, quantitative proteomics
# Conditions: stress: 50 degC
# In short: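 Quantitative proteomics served as the high-throughput read-out for pooled custom libraries of small protein domains. Each was stressed at 50°C. Aggregation propensity is expressed as the base-two log fold change in soluble protein after stress. A higher value means a larger share of the protein remains in solution.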
row,Sequence,soluble fraction (log2)
1,HMDSIDIDAETKSLGPNAPQIIKGIKEWGQGLVAKGVWSDQDFEEFKVFAATANGINALNKVRKFY,-0.154
2,HMSTPLVATLRKRIIDGHYPPGERLAEIPVAEAFGVSRTPVRLAFRTLEQEGLLEKAGKRGYAVRA,0.0325
3,HMRVNINVSENILDWVMKRVNPSVLSSKQGELLYAWKEGRKVPTYNQIEKMSKVTGIPLGYFFLEKPPVE,-0.569
4,HMEKYIVEAEEQGKRLDMYISSKDEELTRTSAQRLIEQGDILVNNKKVKVAYKVSEGDIIAVEKQ,0.0849
5,HMGIIVDMSKIKQMLQLSEAGHSNRKIALELGINKETVNNYMQLIRNGRLDIRQLLKMDDPELERRFHA,-0.329
6,HMIEINNLEDLKLMKEFILKNGKYGFGVFVGGKYIGLSDIGSVNSFKDTLGLPVVSLGNDDFKRFTEAH,-0.658
7,HMELPPLEPIDRILVVQQPINIREQPGVLAKKIGRVSSGETLTILAKVSGQDWYFVETDNGGRGYVFKRV,-0.555
8,HMTDFDPDGREKLIKVQKALHFNNHQLADALRVGQATFSSYIYGRVAAGVPVRVVKAAEDLLKNSKATV,-0.303
9,HMGVTVDEVHRNFESGMNVVHKKFGAGVVDSFDEGKIRINFDGVIKVFIADVLINSGMLESVSYTH,-0.212
10,HMGTIRAPMPGTILKINVVDGDSVTKGDVLLILESMKMENSITSPKTGSVTSVYVSEGDPVQHGETLIDL,-0.147
11,HMSDRFVRIVMNDGTVKLGQMISEDADFIRLKTNNLGELNIPKYLVLDMMDLTRSEYVRLSISNAG,0.169
12,HMSVALSENIKTRRKALKMSQEYVAEQLDISRQAVAKWEAGKSEPTTENLVKLAALFEMSVSELVE,-0.369
13,HMKAGAVFNEGDVLYPKIGGLKLMAAAGEGGKVVATLAKTDEMIYMGEEQSGFVKVESGSGSGWVKKILVA,0.366
14,HMVTNELFGTRLRAFRKEKGLTIEQLAERVGLSPNYLGDIERGKKLPSMATFIRLVNELDISADEL,-0.293
15,HMGALARLLASVEQELGVTRDRMTRTQKQEAVTLLNEWGAFTLRKSVEDVAEALGVSRFTVYNYLERAEA,-2.74
16,HMSEEVKSQPISILDLSTRASNGLKNEGIETIGELVKYSEDELLGLDKFGQNSLKEIKKKLEEIGLTLKEH,-0.0419
17,HMPTLNIVDGHIAASDGVRILSIHNVTGRRYATSSKLPAGIYIVVLMPAKAETPLTVKVIVEA,-1.6
18,HMKITIDSVERDETFRLIWGTGWKPKNKIQELAAIQAKKNGLGRMNEVAGLAAWRGIWQQVAEQVAQEVL,-1.04
19,HMYPQLIGFKVIDEDKGEVGVVKEVSESMHQILLTVMKGKKEILIPLAEEFITKVNRHKKELFMVLPDG,0.502
20,HMKTLDATQRLKLNGEGIIVFNFGKYVDQPVVEIFKKERGYFAWMMSKDFSQQVKNIITKIHNEEILGK,-2.76
21,HMKILKQLEAIIEKEGLNESAKQFYLREISELDKEKQQEIINLVDKMEQAGFKNNLASAFSEVTEDIPQF,-0.0195
22,HMITNEDINIKKLLVVMKDTPLSANEIMDKLNIKSKETLRNMYLDPAIKKGLINLTIPDKPTSKNQKYYK,-0.0903
23,HMPLRPNQRQFIHLMVYQGLDRNEAYAQANNKVLTEENYESIRTAAAKTFYTPHVNNYYHALMEEIRDRE,-0.299
24,HMFTFEDMDKFESLLTTGLTDVQRRIYSLVTHDGKEYDLIAETLGISVEAVRMHMSRARKKIRENYKKID,-2.42
25,HMETLGADLRALRKSRGLTLLDMAESLGRSVGWLSQVERDLSDPSISDLREIAELLGVPISMLFRH,-2.86
26,HMRMTKQRQAVLDELTRVTDFRSAQQIFEDLHSQGHRVGLATIYRSLQGLAEDGSVDTLRSSDGESLY,-0.0884
27,HMIPKDKQAWIALTYIYGVGRTTSMEILKKAQVGEEIRMKDLTEEEVTRIRNIIDKEYEVEGDLRRN,-0.292
28,HMYDASELNKALEEAKKLDLNNYTEESSEALKNAISKAEEALLSKDKETINSALEELNKAMDSL,0.112

row,Sequence,soluble fraction (log2)
1,HMDVIDDAQAMEIALEDAGLSMDDLDRYELELHTKRSELVYSIELKSGTEEYEYDLRAADGTILKRDTDF,-0.168
2,HMYIDANTALLAKRIQAKNGFLPLSDKSTAEEIYAEFGISKKAFKKALGALYKERLVRIGDEGVVWV,-1.79
3,HMDSPRITMDQLRIGLYVYLDLTWFQHPFAFSHFKINSEDQIKTILGLGLKSVRYDPALSDPV,-2.67
4,HMTLSHAINRLRLNANMSQEQFAGLFHVSQQSVQKWESGDSVPELSKLIAIAKHFGISLDALILGN,-0.614
5,HMNRIARRELMEQLFADNKITTQEQLQQLLRAEGVEVTQATISRDMRILNIVKVSDQNGNTYYKQMK,-0.15
6,HMSQAVTMLKAGRLLANSKGTGAAVRDLEPGMLLYPTGQKDGTMWEVEDEMGNKGWVNSTSMQLA,0.188
7,HMKFYIHEIIGFNAVDKVAGIVGKVININEDSPQKKLVVNYNGKEVFIPLVDEIVRKIDKQKNEVLITMP,0.155
8,HMAQLPADMSKVKSADISEAQLQEFIQKATSSGYNMNQIEMEFAKRGMSENEVSLLRPRLRRLMAS,-0.031
9,HMGSLNDQVMKYIDALPSAFNKRELDFLIERGVKEFALNGEYLEKAIINEYKLTADTYHRER,0.0641
10,HMARKISVEALGKYFPNSPMLAAAVAVTGVMKKDEFIHEMRASYKHKFAKKPEVIDGNMKALTMTFEA,-0.126
11,HMDLPAEFSKPELETLFKRGKQSGELSLTEVRDALEAAQLPNKKTQTKVLKVLSDNAIHVLMDG,0.146
12,HMDDAIAEKTGGAVSSVNQRQAILDHIREAYGIELESLRSTDIERYLDDPEIPEPVKDILRDRLRGAK,0.181
13,HMSSLTPRETEVLSRMAQGDANTSIAERLVITEKAVQKHINAIFAKLGLAEEPTSARRVLAVLAFLR,-0.512
14,HMLVPWKSANLFKLVEPNFRLAERKIPMLPSADREKLQEIMSDMKDAIVDNDKMALMKLDEELTDFLFDFV,-1.22
15,HMEKLIRIKRLIKQLNEYRDSYYNEARPVVSDAAYDKLFDELSELEKETGVVYANSPTQTVG,-0.149
16,HMETGELQQILEDVFSKNIGIVQDKREAAFSILMGMIMAKSRGRADGALVSTLLKKKLTEFLATSDQVR,0.0929
17,HMNQIDDADRKRVVDEVAGQFSSMSLTEMRSDREKLLSRIIPQVQTTLNRLGLQTIDVEGIAREVIARVG,0.159
18,HMDAMGAVGIARAFISAGERGGDISDGLEHMHGKLLRLSSLMYTRSGKKMAARRHELLSSFVQALEEEIK,-0.174
19,HMFIKVEVPDLTGMTLTEVRKALEEKNLKMGDIRPAGQTSLVAKVINQSPQAKMVVDEYSEVSIQFEE,-0.217
20,HMPLTAASLQTYLRGVDYPASKQDLIAHARKSDAPEDAITVLEQYSEQTYRSAADVSAEFGS,0.178
21,HMDGVSLLFKLMETLPEQQKTILHLRDVEQLEFAEIAKITNTSQANVRVALSRARKKIKDLLLKQY,-2.17
22,HMALQDKYAELLTAANTMGVTNLAVAEKDGTLHVSGTAKSTADYDSLWALYDKIDPNMASGDLMMNI,0.0408
23,HMKSVFQPIYEDLLSRIQDGRLLPGMPLPSENALAVQYGTSRPTIRRAIGLLVEKSLVIRQPGIGSIVAS,-1.17
24,HMLSKGDRVSWDTPQGRTQGEVVEKKTKDFEHDGQKFTASDDDPAFIVKSEKSGAEAAHKGSALNK,0.0884
25,HMKSDEGEIKKIVEEIISKNASVVEDYKKGKEVALQFLVGQGMKATKGSANPELLKKIILENI,0.506
26,HMSEPTLESLRAEGAHHYDPARFHYLEVLARRMPGQHAAVQQVLASRLREAVAAYAGRRSLI,-0.126
27,HMTVDYDKFTKDTVVQHNKFGKGVIIMTSGDGEDKIASIAFQGLGVKRFSLAIAASNLKILGKVNED,-0.133
